From patent US9969780

Key:
[1] = target: HIV-1 Tat protein (recombinant, native, biologically active) (HIV-1) (UniProt Q73370); test: ELISA; wells coated with native Tat, antibody used for detection
[2] = target: Tat (36-50) peptide (core region) (HIV-1); test: ELISA; plate coated with Tat peptide, antibody used for detection
[3] = target: Tat (83-102) peptide (C-terminal domain) (HIV-1); test: as above
[4] = target: Tat (21-58) peptide (cysteine, core, and basic regions) (HIV-1); test: as above
[5] = target: Tat (46-60) peptide (basic region-nuclear localisation signal) (HIV-1); test: as above
[6] = target: Tat (1-20) peptide (N-terminal domain) (HIV-1); test: as above
[7] = target: Tat (65-80) peptide (RGD sequence) (HIV-1); test: as above
[8] = target: Tat (56-70) peptide (glutamine-rich region) (HIV-1); test: as above
[9] = target: Tat (21-40) peptide (cysteine-rich region-transactivation domain) (HIV-1); test: as above
[10] = target: Tat (73-86) peptide (HIV-1); test: as above
[11] = target: HIV-1 Tat protein (recombinant, native, biologically active) (HIV-1) (UniProt Q73370); test: ELISA; plate coated with Tat, antibody used for detection
[12] = target: Tat-cys22 (transactivation mutant, cysteine 22 substituted by glycine) (HIV-1); test: ELISA; wells coated with Tat-cys22, antibody used for detection
oxidised Tat (HIV-1) = oxidised Tat (HIV-1) (UniProt Q73370); test: ELISA; wells coated with oxidised Tat, antibody used for detection
[13] = target: bovine serum albumin (bovine) (UniProt P02769); test: ELISA; uncoated (BSA-blocked) well incubated with Tat, detected with anti-Tat
Chain of bovine serum albumin (bovine) (P02769 25-607 limits assumed): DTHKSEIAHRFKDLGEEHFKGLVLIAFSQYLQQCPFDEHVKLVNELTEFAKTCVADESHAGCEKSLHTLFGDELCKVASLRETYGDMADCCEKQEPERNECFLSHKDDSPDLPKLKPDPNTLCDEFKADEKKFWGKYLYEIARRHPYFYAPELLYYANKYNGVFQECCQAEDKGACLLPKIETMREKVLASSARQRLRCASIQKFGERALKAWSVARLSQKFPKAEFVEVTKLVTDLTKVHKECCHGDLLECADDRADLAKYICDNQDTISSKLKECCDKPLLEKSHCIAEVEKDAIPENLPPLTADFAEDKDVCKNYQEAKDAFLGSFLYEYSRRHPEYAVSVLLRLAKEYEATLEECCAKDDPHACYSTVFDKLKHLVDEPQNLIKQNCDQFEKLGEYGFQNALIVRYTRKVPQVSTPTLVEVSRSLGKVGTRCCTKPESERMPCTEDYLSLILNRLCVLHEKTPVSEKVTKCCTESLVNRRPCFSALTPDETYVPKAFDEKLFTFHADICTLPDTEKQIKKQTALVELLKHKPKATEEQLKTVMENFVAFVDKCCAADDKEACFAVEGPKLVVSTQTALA

Substance	ELISA signal [1]	ELISA signal [2]	ELISA signal [3]	ELISA signal [4]	ELISA signal [5]	ELISA signal [6]	ELISA signal [7]	ELISA signal [8]	ELISA signal [9]	ELISA signal [10]	ELISA signal [11]	ELISA signal [12]	ELISA signal (oxidised Tat (HIV-1))	ELISA OD [13]
monoclonal anti-CCR5 antibody (Pharmingen), directed against the CCR5 second extracellular loop	1.24	0	0	3	0.466	0	0	0.147	0	0	1.45	0.75	0.128	
HIV-1 Tat protein (recombinant, native, biologically active) (from UniProt Q73370 1-100)														0.431 OD
CTR isot. (isotype control antibody)	0.051	0	0	0.108	0.063	0.006	0	0	0.082	0.019	0.081	0.026	0.016	
